In patent CN101663321A:
Where two headings read alike, the source gives them in different places.

B1: E63 antibody (produced by hybridoma 124E63, ATCC PTA-7818) (antibody, V domains shown)
VH: QVQLQESGPGLVKPSETLSLTCIVSGGSVSSGGYYWSWIRQPPGKGLEWIGYIYYSGSTNYNPSLKSRVTISVDTSKNQFSLKLSSVTAADTAVYYCARWITMFRGVGFDPWGQGTLVTVSS
VL: EIVLTQSPDFQSVTPKEKVTITCRASQSIGSSLHWYQQKPDQSPKLLIKYASQSFSGVPSRFSGSGSGTDFTLTINSLEAEDAAAYYCHQSSSLPLTFGGGTKVEIK
B2: F19 antibody (produced by hybridoma 124F19, ATCC PTA-7819) (antibody, human IgG1, V domains shown)
VH: QVQLQQWGAGLLKPSETLSLTCAVYGGSFSGYNWHWIRQPPGKGLEWIGEITHSGSTNYNPSLKSRVTISVDTSKNQFSLKLSSVTAADTAVYYCVREIAVAGTGYYGMDVWGQGTTVTVSS
VL: AIQLTQSPSSLSASVGDRVTITCRASRGINSAFAWYQQKPGKAPKLLIYDASSLESGVPSRFSGSGSGTDFTLTISSLQPEDFATYYCQQFNSYPLTFGGGTKVEIK

Experiments:
Test in all cases: dot blot: serial dilutions of hLIGHT spotted on PVDF, probed with 5 μg/ml antibody
[1] = molecular target: denatured soluble hLIGHT (boiled in 2x SDS sample buffer) (human) (UniProt O43557)
[2] = molecular target: soluble FLAG-tagged recombinant hLIGHT (Gly66-Val240 with N-terminal FLAG), native form (human) (UniProt O43557)
[3] = molecular target: denatured soluble hLIGHT (boiled in 2x SDS sample buffer) (human) (UniProt O43557); remark: listed apart in the source

| Binder | lowest detection limit (dot blot) [1] | lowest detection limit (dot blot) [2] | lowest detection limit (dot blot) [3] |
| --- | --- | --- | --- |
| B1 | 139 ng | 3.9 ng | – |
| B2 | – | 23 ng | > 5000 ng |
